The values that follow come from patent US20100144847A1.

For the assay, the target named is tropomyosin. The assay can be described thus: cell-based or functional assay.

The substance GFP-CKIIα (from UniProt Q60737 1-391) came in with a colony formation inhibition assay, A9 cells under G418 selection above 2000 colonies.
